Broadly, the Kd is the equilibrium constant for the complex coming apart. A lower Kd goes with a tighter complex. A word on the IC50: it is the concentration that inhibits the measured activity by half. The EC50 (read off the curve) is the concentration at which the effect is half-maximal.

This is an account of results in patent publication US20240092937A1 (HUMMINGBIRD BIOSCIENCE HOLDINGS PTE, published 2024).

Assay [1] has as its target human HER4 expressed on HEK293 cells (human) (UniProt Q15303). Nature of the assay: flow cytometry on HEK293 HER4 overexpressing cells, 10 µg/ml antibody. A general note: A flow cytometer gives signals particle by particle.
Assay [2] has as its target FcRn (human) (UniProt P55899). Nature of the assay: Bio-Layer Interferometry, determined as described in Example 7. On the technique in general: In BLI a coated tip is dipped into the sample, and binding shifts an interference pattern.
The target of assay [3] is FcgRIIIA (F158) (human) (UniProt P08637). The assay is described as above.
Assay [4] concerns the target T1, moFcRn (mouse) (UniProt Q61559).
T1 sequence (receptor, looked up): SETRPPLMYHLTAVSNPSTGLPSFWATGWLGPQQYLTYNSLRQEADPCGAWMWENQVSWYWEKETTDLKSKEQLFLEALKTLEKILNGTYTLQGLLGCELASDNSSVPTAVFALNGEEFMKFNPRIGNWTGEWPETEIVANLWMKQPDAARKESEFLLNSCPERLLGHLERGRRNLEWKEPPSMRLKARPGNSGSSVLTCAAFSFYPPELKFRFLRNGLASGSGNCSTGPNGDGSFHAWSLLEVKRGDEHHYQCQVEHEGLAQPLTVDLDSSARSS
T1 sequence (looked up): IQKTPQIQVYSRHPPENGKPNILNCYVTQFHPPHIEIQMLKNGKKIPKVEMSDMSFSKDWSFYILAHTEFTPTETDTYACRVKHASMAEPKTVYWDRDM
The description is as above.

Assay [5] addresses moFcgRIV (mouse). The assay is described as above.
For assay [6], the target named is His-tagged FcγRIIIa (V158) (UniProt P08637). Nature of the assay: Bio-Layer Interferometry, determined as described in Example 7; receptor row FcgRIIIA (V158).
The target in assay [7] is human HER3 expressed on cells (human) (UniProt P21860). Nature of the assay: flow cytometry on HEK293T HER3 O/E cells, '10 ug' antibody as printed (10 µg/ml by paragraph 872), FITC anti-Fc secondary.
The target is the same in assay [8]. Nature of the assay: flow cytometry, HEK293 cells overexpressing human HER3, 20 ug/ml antibody, FITC anti-Fc secondary; same antibody on WT HEK293: 1.91.
For assay [9] the target is unchanged. Nature of the assay: flow cytometry, HEK293 cells overexpressing human HER3, 20 ug/ml antibody, FITC anti-Fc secondary; same antibody on WT HEK293: 8.15.
The target is the same in assay [10]. Nature of the assay: flow cytometry, HEK293 cells overexpressing human HER3, 20 ug/ml antibody, FITC anti-Fc secondary; isotype on WT HEK293: 0.07.
In assay [11] the target is FcgRIIA (H167) (human). Nature of the assay: Bio-Layer Interferometry, determined as described in Example 7.
Assay [12] has as its target FcgRIIA (R167) (human). The assay is described as above.
Assay [13] has as its target FcgRIIB (human). The assay is described as above.
The target in assay [14] is human HER3 polypeptide, recombinant (His-tagged human HER3) (human) (UniProt P21860). Nature of the assay: BLI (Octet QK384), His-tagged human HER3 on anti-Penta-HIS tips, saturating antibody LJM-716 (400 nM), then competing antibody MM-121 (300 nM).
Assay [15] has the same target. Nature of the assay: plate ELISA dimerisation assay: human EGFR-His coated, HER3-biotin 4 µg/ml and NRG 0.1 µg/ml constant, antibody titrated; blocked interaction EGFR:HER3.
Assay [16] addresses T2, human HER3 polypeptide, recombinant (His-tagged human HER3) (human, UniProt P21860 20-643, biotinylated in the assays of paragraph 766 and paragraph 908).
T2 construct: Bought protein (Sino Biological for the ELISAs); also called HER3 His; HER3-biotin
Nature of the assay: ELISA on human HER3 polypeptide coated at 0.1 ug/ml.

The target of assay [17] is T3, mouse HER3 polypeptide (mouse, UniProt Q61526 20-641).
T3 construct: also called M. musculus HER3 homologue
Nature of the assay: ELISA, plate coated with 0.1 ug/ml target polypeptide, antibody serially diluted. The method, then:
(§1) ELISAs were used to determine the binding specificity of the antibodies. […] The antibodies were also analysed for their ability to bind to human EGFR and human HER2 (Sino Biological Inc., China).
(§2) ELISAs were carried out according to standard protocols. Briefly, 96-well plates (Nunc, Denmark) were coated with 0.1 μg/ml of target polypeptide in phosphate-buffered saline (PBS) for 16 h at 4° C. After blocking for 1 h with 1% BSA in Tris buffer saline (TBS) at room temperature, the anti-HER3 antibody was serially diluted with the highest concentration being 10 μg/ml, and added to the plate. Post 1 h incubation at room temperature, plates were washed three times with TBS containing 0.05% Tween 20 (TBS-T) and were then incubated with a HRP-conjugated […] antibody (Life Technologies, Inc., USA) for 1 h at room temperature. After washing, plates were developed with colorimetric detection substrate 3,3′,5,5′-tetramethylbenzidine (Turbo-TMB; Pierce, USA) for 10 min.

Assay [18] has as its target T4, rat HER3 polypeptide (rat, UniProt Q62799 20-643, limits assumed).
T4 construct: also called R. norvegicus HER3 homologue
Described as above. The method, then: as §1, §2

Assay [19] deals with T5, human EGFR polypeptide, recombinant (human, UniProt P00533 25-645).
T5 construct: also called human HER1 (EGFR); human EGFR-His
The assay is described as above. The procedure:
as §1, §2

Assay [20] concerns the target human HER2 polypeptide, recombinant (His-tagged HER2 protein) (human, UniProt P04626 23-652). The description is as above. The method, then:
as §1, §2

T4 sequence (Q62799 20-643 limits assumed): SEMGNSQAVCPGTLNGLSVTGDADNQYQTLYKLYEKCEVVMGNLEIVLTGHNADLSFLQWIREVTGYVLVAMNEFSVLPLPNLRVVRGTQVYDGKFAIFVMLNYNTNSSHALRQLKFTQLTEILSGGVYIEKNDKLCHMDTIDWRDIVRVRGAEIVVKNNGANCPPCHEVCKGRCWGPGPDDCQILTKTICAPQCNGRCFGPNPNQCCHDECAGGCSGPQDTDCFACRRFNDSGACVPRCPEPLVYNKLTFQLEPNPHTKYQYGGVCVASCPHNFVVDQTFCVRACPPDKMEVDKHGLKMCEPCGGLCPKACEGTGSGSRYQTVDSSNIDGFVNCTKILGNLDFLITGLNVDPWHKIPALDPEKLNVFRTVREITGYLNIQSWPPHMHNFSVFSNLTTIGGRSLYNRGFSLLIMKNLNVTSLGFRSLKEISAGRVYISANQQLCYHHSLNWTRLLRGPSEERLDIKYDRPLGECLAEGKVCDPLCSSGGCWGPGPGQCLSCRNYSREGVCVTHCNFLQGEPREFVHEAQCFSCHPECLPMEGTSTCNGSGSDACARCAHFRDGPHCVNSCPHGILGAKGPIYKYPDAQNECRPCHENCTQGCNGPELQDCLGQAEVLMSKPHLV
T3 sequence (Q61526 20-641 limits assumed): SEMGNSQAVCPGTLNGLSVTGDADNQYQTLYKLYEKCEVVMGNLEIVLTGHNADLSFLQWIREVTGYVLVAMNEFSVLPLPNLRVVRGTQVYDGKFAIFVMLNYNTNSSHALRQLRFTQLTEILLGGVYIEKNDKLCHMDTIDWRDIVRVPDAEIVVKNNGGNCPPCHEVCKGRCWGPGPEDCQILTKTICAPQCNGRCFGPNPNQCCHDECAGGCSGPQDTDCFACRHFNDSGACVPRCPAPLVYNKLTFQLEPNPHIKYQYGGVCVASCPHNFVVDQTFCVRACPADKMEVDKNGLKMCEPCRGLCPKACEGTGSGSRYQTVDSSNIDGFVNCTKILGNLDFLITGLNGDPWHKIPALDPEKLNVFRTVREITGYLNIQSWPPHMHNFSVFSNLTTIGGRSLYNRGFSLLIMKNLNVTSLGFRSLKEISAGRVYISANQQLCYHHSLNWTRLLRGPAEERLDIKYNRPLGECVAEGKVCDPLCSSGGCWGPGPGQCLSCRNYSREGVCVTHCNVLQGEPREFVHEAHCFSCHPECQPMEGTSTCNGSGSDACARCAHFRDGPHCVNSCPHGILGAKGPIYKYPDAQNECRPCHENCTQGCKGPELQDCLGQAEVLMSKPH
FcgRIIB (human), sequence (P31994 43-217): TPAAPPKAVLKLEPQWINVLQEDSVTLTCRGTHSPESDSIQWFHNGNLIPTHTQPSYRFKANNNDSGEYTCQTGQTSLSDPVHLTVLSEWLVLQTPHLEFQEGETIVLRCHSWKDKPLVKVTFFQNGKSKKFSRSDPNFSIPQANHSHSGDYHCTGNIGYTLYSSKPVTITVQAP
FcgRIIA (H167) (human), sequence (P12318 34-217): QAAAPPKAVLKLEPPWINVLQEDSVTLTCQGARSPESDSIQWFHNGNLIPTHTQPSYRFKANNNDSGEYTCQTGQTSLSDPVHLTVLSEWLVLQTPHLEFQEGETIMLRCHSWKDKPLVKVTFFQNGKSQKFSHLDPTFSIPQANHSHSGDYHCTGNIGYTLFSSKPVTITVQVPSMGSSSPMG

In [1], anti-HER3 antibody clone LJM716 returned a % Positive for HER4 of 0.27%. Moreover, the Kd is 16.5 nM in [2]; 5380 nM in [3]; 12.8 nM in assay [4]; 701 nM in assay [5]; 705 nM in assay [6]. The % Parent (HER3 positive gate) in assay [7] was determined as 74.4%. The % Parent (HER3 positive) in assay [8] came to 99.5%. The % Parent (HE3 Positive) in [9] is 98.7%.
Take Isotype (antibody): the % Parent (HER3 positive) in assay [10] worked out at 0.12%.
As for hIgG1 Isotype (antibody), the % Positive for HER4 in assay [1] is 0.07%. Also, the % Parent (HER3 positive gate) in assay [7] is 0.18%.

B1: anti-HER3 antibody MM-121 (seribantumab) (antibody, INN chains, looked up, human IgG2)
heavy: EVQLLESGGGLVQPGGSLRLSCAASGFTFSHYVMAWVRQAPGKGLEWVSSISSSGGWTLYADSVKGRFTISRDNSKNTLYLQMNSLRAEDTAVYYCTRGLKMATIFDYWGQGTLVTVSSASTKGPSVFPLAPCSRSTSESTAALGCLVKDYFPEPVTVSWNSGALTSGVHTFPAVLQSSGLYSLSSVVTVPSSNFGTQTYTCNVDHKPSNTKVDKTVERKCCVECPPCPAPPVAGPSVFLFPPKPKDTLMISRTPEVTCVVVDVSHEDPEVQFNWYVDGVEVHNAKTKPREEQFNSTFRVVSVLTVVHQDWLNGKEYKCKVSNKGLPAPIEKTISKTKGQPREPQVYTLPPSREEMTKNQVSLTCLVKGFYPSDIAVEWESNGQPENNYKTTPPMLDSDGSFFLYSKLTVDKSRWQQGNVFSCSVMHEALHNHYTQKSLSLSPG
light: QSALTQPASVSGSPGQSITISCTGTSSDVGSYNVVSWYQQHPGKAPKLIIYEVSQRPSGVSNRFSGSKSGNTASLTISGLQTEDEADYYCCSYAGSSIFVIFGGGTKVTVLGQPKAAPSVTLFPPSSEELQANKATLVCLVSDFYPGAVTVAWKADGSPVKVGVETTKPSKQSNNKYAASSYLSLTPEQWKSHRSYSCRVTHEGSTVEKTVAPAECS
For B1, the % Positive for HER4 in assay [1] stood at 8.73%. Moreover, the Kd in assay [2] amounted to 11.5 nM; in assay [11], 222 nM; in [12], 243 nM; in assay [13] it was 1440 nM; in [4], 6.69 nM; in assay [6], 7050 nM. For the same molecule, the cell of the competition table (name and unit of the value not given) in assay [14] turned out to be 0.693. Also, the IC50 in [15] worked out at 54.2 nM.

B2: anti-HER3 clone 10D1_c90 IgG1 (antibody, V domains shown)
VH: QVQLQESGPGLVKPSQTLFLTCTVSGYSITSGYSWHWIRQHPGKGLEWIGSIRYSGGTDYNPSLKSLVTISVDTSKNQFSLKLSSVTAADTAVYYCARMTTAPWYPFDYWGQGTTVTVSS
VL: DIQMTQSPSSVSASVGDRVTFTCKASQIVGSNVAWYQQKPGKAPEPLIYSASYLYSSVPSRFSGSGSGTEFTMTISSLEPEDFATYYCQQYTTHPLTFGPGTKVEIKR
notes: Humanised 10D1 variant, human IgG1 / kappa
For B2, in [16], the “EC50 (read off the curve)” value was around 6 ng/mL.

B3: anti-HER3 clone 4-35-B4 IgG1 (antibody, V domains shown)
VH: EVQLQQSGAELVKPGASVKLSCTASGFNIKDTYIHWVKQRPDQGLEWIGKIIDPANGNTNYDPKFQGKATITADTSSNTAYLQLSSLSSEDTAVYFCARGLHWGQGTTLTVSS
VL: DIVLTQSPASLAVSLGQRATISCRASKSVSTSGYSYMHWYQQKPGQPPKLLIYLASNLESGVPARFSGSGSGTDFTLNIHPVEEEDAATYYCQHSRELPYTFGGGTKLEIKR
notes: Human IgG1 / kappa chimeric
In the case of B3, the binding result in assay [17], in assay [18], in assay [19] and in assay [20] was “binds” in each case.
